Measurements published in patent US20110098449A1.

Target: Human recombinant hepatocyte growth factor activator (HGFA) (human) (UniProt Q04756)
Assay: cell-based or functional assay

Chain of UniProt Q04756 (Q04756 373-655 limits assumed): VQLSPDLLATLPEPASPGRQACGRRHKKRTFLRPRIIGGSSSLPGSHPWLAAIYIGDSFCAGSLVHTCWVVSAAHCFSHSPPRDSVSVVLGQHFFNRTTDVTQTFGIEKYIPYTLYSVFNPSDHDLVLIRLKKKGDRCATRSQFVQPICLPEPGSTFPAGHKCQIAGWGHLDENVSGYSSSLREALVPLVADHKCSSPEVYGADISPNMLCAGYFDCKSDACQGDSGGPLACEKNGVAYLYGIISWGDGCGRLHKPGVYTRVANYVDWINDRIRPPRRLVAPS

inhibition of HGFA-mediated 125I-proHGF conversion (SDS-PAGE): 1 µM
Substance: Soluble HAI-1B (hepatocyte growth factor activator inhibitor-1B) (from UniProt O43278 36-465)
